Values quoted from earlier work in article PMC3505813.

Assays:
VCAM-1 (Homo sapiens) = VCAM-1 (Homo sapiens) (UniProt P19320)
[1] = target: aminopeptidase N (APN) (Homo sapiens) (UniProt P15144)
UniProt P15144, sequence (P15144 2-967): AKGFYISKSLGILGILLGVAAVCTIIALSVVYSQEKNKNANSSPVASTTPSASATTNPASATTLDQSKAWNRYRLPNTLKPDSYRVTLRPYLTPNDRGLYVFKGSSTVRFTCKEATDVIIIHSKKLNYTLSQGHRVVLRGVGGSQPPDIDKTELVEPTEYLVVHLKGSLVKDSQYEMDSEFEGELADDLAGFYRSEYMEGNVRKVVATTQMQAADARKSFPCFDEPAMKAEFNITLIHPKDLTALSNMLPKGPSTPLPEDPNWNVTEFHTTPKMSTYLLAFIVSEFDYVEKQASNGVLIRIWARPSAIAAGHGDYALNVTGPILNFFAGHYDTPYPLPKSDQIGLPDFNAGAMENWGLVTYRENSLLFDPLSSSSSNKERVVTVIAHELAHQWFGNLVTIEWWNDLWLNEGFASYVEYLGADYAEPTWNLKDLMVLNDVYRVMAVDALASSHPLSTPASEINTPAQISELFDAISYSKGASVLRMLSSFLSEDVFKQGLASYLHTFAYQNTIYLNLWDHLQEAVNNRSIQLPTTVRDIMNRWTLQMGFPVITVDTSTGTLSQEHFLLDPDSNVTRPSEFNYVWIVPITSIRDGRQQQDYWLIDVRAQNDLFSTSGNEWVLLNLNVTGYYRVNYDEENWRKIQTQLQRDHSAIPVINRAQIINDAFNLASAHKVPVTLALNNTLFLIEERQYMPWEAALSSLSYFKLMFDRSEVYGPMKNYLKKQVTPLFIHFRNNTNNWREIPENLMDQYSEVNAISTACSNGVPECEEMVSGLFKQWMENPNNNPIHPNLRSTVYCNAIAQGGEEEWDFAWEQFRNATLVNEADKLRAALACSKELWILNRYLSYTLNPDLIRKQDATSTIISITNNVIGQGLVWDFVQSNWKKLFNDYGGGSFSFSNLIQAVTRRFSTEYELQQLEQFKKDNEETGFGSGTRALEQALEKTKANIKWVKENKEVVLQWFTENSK

UniProt P19320, sequence (P19320 25-698): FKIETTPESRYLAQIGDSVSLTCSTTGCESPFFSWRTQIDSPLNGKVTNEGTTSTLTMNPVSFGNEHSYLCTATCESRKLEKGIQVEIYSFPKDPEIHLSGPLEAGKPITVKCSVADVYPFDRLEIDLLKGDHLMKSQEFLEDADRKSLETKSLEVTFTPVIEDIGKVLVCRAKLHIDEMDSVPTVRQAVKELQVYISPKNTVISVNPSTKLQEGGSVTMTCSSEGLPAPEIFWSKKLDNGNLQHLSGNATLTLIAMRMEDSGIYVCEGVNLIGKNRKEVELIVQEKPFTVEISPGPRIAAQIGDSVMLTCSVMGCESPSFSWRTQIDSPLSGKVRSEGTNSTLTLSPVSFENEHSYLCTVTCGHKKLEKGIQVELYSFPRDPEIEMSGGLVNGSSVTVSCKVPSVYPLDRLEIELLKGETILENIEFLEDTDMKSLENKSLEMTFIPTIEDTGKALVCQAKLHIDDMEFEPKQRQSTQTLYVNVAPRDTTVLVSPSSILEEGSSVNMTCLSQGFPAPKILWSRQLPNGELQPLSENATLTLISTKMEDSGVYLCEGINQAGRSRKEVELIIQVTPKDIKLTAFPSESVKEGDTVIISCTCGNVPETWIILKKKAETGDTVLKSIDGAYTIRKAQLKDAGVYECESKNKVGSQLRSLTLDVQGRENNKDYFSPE

Substance | Kd (VCAM-1 (Homo sapiens)) | Kd [1]
VHP peptide | 30 µM | 
NGR peptide |  | 300 µM
